# In PMC314469, “Protein Interaction Networks by Proteome Peptide Scanning” (PLoS Biology, 2004):
# T1: amphyphisin SH3 (AMPH_HUMAN), P49418
# T1 chain: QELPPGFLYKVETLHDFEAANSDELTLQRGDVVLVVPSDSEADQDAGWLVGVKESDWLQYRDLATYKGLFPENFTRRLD
# Molecular target: T1, amphyphisin SH3 (AMPH_HUMAN), P49418
# Experiment: SPOT array
row,Binder,"normalised SPOT signal, Boehringer light units (BLU); mean over the file's lines of this peptide"
1,EERPLRRPRPVQRT [Q9H7J2 535-548],836
2,EEVPPHKPPTLPLD [Q9BXF3 1468-1482],28.7
3,EGHRPRRPRGALPP [Q9UGQ7 111-124],27.1
4,EEKVPEKPPTPKES [Q9HDC5 18-32],25
5,EESLPKRPLGKHSK [Q8WYQ9 81-94],32.4
6,EDRLPRRPARSGGP [Q9UGK6 43-56],9000
7,EEIALERPEKEIRN [Q9H5F4 313-326],122
8,EDVLLRRPKSTPDM [Q9NUD7 336-349],38.7
9,AETRPHRPPGARDS [Q9H021 747-761],218
10,EDPPPTRPSRPWRD [Q9UIG4 62-75],6800
11,EEPKILRPPRRPRK [Q9NYS8 1484-1497],12700
12,EEASFRRPHPDGDV [Q9UBD0 73-86],39.7
13,EERALRRPGHLYLL [Q8WZ07 124-137],38.2
14,EEAALKRPEIISTV [Q9NU22 363-376],18
15,EGHALRRPPPRWLL [Q8WUK7 5-18],66.6
16,EGQQLVRPKKLPLI [Q9H2U9 25-38],87.3
17,EDSIPKRPVSSIPL [Q8WTV4 223-236],33.5
18,EGNRPKKPPPPSAP [Q9NYR0 332-346],53.4
19,EGEEPKRPPGISER [Q9NS96 504-517],23.2
20,AFPRPKRPAPAQEA [Q9BQ84 248-261],145
21,EHPEPKRPSVDSLV [Q9C0I2 974-987],50.2

# Continued, values first:
row,"normalised SPOT signal, Boehringer light units (BLU); mean over the file's lines of this peptide",Binder
1,29.1,EGLAFRRPAEYDPK [O95444 171-184]
2,109,EEVVPPRPPLPRSY [CAD38934 123-137]
3,83.5,EEAQIFRPLKFNTT [Q15029 572-585]
4,16700,EGPSPARPPRRRTS [Q9Y5L9 2452-2466]
5,54.8,EGTYPRRPGSSPKV [Q9UJX9 322-335]
6,154,EEEELARPPREQGQ [Q14767 745-758]
7,2380,AGLRPPKPPRPASL [O75190 254-268]
8,5630,EGNKPQRPPPPRRP [Q04118 252-266]
9,29.7,EGAAPRRPGFWGSL [Q92988 19-32]
10,85.8,EHPRLRRPMPWLLL [Q9Y5I4 12-25]
11,4.2,EEEPPRRPRARSSE [O60301 1-14]
12,282,EFGLPGRPGRPGLN [P39059 904-917]
13,17.2,AFVNFRRPEDARAA [Q96T37 218-231]
14,31.2,EGVPFRRPSTFGIP [P78347 776-789]
15,115,EGSMLRRPRTSSQH [Q92538 1455-1468]
16,36.7,EGTEPRRPRAGPEE [P18887 302-315]
17,27.1,EGISLRRPNSFGIA [O95444 608-621]
18,42.6,EGIPFRRPSTYGIP [P78347 404-417]
19,31.2,EHREPKRPEIIFLP [O43196 121-134]
20,41.5,EDVKPFKPPLSDAE [Q9UJV1 144-158]
21,72.5,EGAVPRRPEDALLL [Q96ML3 90-103]

# Molecular target: endophilin SH3 (SH3G2_HUMAN), Q99962
# Experiment: SPOT array
row,Binder,"normalised SPOT signal, Boehringer light units (BLU); mean over the file's lines of this peptide"
1,EERPLRRPRPVQRT [Q9H7J2 535-548],678
2,EEVPPHKPPTLPLD [Q9BXF3 1468-1482],59.8
3,EGHRPRRPRGALPP [Q9UGQ7 111-124],2060
4,EEKVPEKPPTPKES [Q9HDC5 18-32],21.3
5,EESLPKRPLGKHSK [Q8WYQ9 81-94],201
6,EDRLPRRPARSGGP [Q9UGK6 43-56],9090
7,EEIALERPEKEIRN [Q9H5F4 313-326],0
8,EDVLLRRPKSTPDM [Q9NUD7 336-349],16.2
9,AETRPHRPPGARDS [Q9H021 747-761],1440
10,EDPPPTRPSRPWRD [Q9UIG4 62-75],382
11,EEPKILRPPRRPRK [Q9NYS8 1484-1497],508
12,EEASFRRPHPDGDV [Q9UBD0 73-86],0.7
13,EERALRRPGHLYLL [Q8WZ07 124-137],14.7
14,EEAALKRPEIISTV [Q9NU22 363-376],15.2
15,EGHALRRPPPRWLL [Q8WUK7 5-18],0
16,EGQQLVRPKKLPLI [Q9H2U9 25-38],70
17,EDSIPKRPVSSIPL [Q8WTV4 223-236],55.6
18,EGNRPKKPPPPSAP [Q9NYR0 332-346],2130
19,EGEEPKRPPGISER [Q9NS96 504-517],21.4
20,AFPRPKRPAPAQEA [Q9BQ84 248-261],154
21,EHPEPKRPSVDSLV [Q9C0I2 974-987],0

# Continued, values first:
row,"normalised SPOT signal, Boehringer light units (BLU); mean over the file's lines of this peptide",Binder
1,39.5,EGLAFRRPAEYDPK [O95444 171-184]
2,8260,EEVVPPRPPLPRSY [CAD38934 123-137]
3,75.8,EEAQIFRPLKFNTT [Q15029 572-585]
4,5340,EGPSPARPPRRRTS [Q9Y5L9 2452-2466]
5,73.1,EGTYPRRPGSSPKV [Q9UJX9 322-335]
6,150,EEEELARPPREQGQ [Q14767 745-758]
7,12300,AGLRPPKPPRPASL [O75190 254-268]
8,18200,EGNKPQRPPPPRRP [Q04118 252-266]
9,1570,EGAAPRRPGFWGSL [Q92988 19-32]
10,783,EHPRLRRPMPWLLL [Q9Y5I4 12-25]
11,26.3,EEEPPRRPRARSSE [O60301 1-14]
12,141,EFGLPGRPGRPGLN [P39059 904-917]
13,51.2,AFVNFRRPEDARAA [Q96T37 218-231]
14,112,EGVPFRRPSTFGIP [P78347 776-789]
15,443,EGSMLRRPRTSSQH [Q92538 1455-1468]
16,4.9,EGTEPRRPRAGPEE [P18887 302-315]
17,51.5,EGISLRRPNSFGIA [O95444 608-621]
18,40.3,EGIPFRRPSTYGIP [P78347 404-417]
19,43.4,EHREPKRPEIIFLP [O43196 121-134]
20,58.1,EDVKPFKPPLSDAE [Q9UJV1 144-158]
21,-0,EGAVPRRPEDALLL [Q96ML3 90-103]
